First the molecules themselves.
B1: PyapApase (Pyrococcus yayanosii CH1) (protein)
chain: MLALIIHHWDTDGITTAALLVRALELGDFKNMTPPIGEFRFDGKIWAAIERADKLYVLDLNLPQEVEKVPVETLFIDHHIQPRIKNPRVRQVNPALEGKHYPSASLVVSEHFGIFNAWSALGAVGDIGEKAFELSRVEELLKGEGLSREDALKLVELIDSNYIVMDRMAVEEALHVLLNYELRELLEYEPWIRRVEAIKEAVEEVMSSVEERNGFAIVDFESPFNIISKVARKLVWEKGYRGAVVVNRNFHGKAQVYFRVSPKEAERISVLTIIGKLRGLGVNAGGKREVIGCICERGKLDEVLSVIDAYLG
B2: PyapApase (Pyrococcus yayanosii CH1; K287A) (protein)
chain: B1 chain with K287A
B3: PyapApase (Pyrococcus yayanosii CH1; G285D) (protein)
chain: B1 chain with G285D
B4: PyapApase (Pyrococcus yayanosii CH1; R259A) (protein)
chain: B1 chain with R259A
B5: PyapApase (Pyrococcus yayanosii CH1; D12A) (protein)
chain: B1 chain with D12A

Changes are numbered by the printed parent chain. In names and notes the source's numbering stands.

Substrate in this data set: Nc1ncnc2c1ncn2[C@@H]1O[C@H](COP(=O)(O)O)[C@@H](OP(=O)(O)O)[C@H]1O
The experiment in a line: HPLC of AMP product, initial rates, double reciprocal plot. Type of data set: biochemical, Pyrococcus yayanosii. Particulars: 20 mM Tris-HCl pH 8.0, 50 mM NaCl, 1.0 mM MnCl2, 1.0 mM DTT, 100 µg/mL BSA, 70 °C. From the text:
HPLC of AMP product, initial rates, double reciprocal plot on PyapApase
B1: the Michaelis constant (Km) (usually the substrate concentration at which the rate is half of its maximum) is 272 ± 12.6 µM. For B2, the Km was determined as 720 ± 33.1 µM; the kcat (commonly the number of substrate molecules converted per active site and unit of time at saturation) is 17.10 ± 2.1 s⁻¹; the catalytic efficiency (kcat/Km) (usually the turnover number divided by the Michaelis constant) came out at 23800 M⁻¹ s⁻¹. In the case of B3, the Michaelis-Menten constant (Km) amounted to 4500 ± 607.7 µM. Same read-out and setting: next, B4: 6000 ± 753.4 µM.

Consider B5, for which the Km came out at 790 ± 47.7 µM, the catalytic constant (kcat) is 1.7 ± 0.3 s⁻¹ and the kcat/Km worked out at 2160 M⁻¹ s⁻¹.

Values taken from paper PMC8268124, “Structure and Function of Piezophilic Hyperthermophilic Pyrococcus yayanosii pApase” (International Journal of Molecular Sciences, 2021).
